# Numbered stars: 1 amine (or outer) side, 2 acyl side, 3 side chain; on linkers, the order of the positions; unused ones are H or OH. Square brackets hold non-standard residues; d marks the D form. Side chains are listed from the residue outwards. Ends that are not written are not given here. * marks the point of attachment. C20 diacid = O=C(O)CCCCCCCCCCCCCCCCCCC(=O)*; C18 diacid = O=C(O)CCCCCCCCCCCCCCCCC(=O)*; γGlu = O=C(O)[C@H](CCC(=O)[*:2])N[*:1]; αMeF = C[C@](N)(Cc1ccccc1)C(=O)O; αMeL = CC(C)C[C@](C)(N)C(=O)O; αMeP = C[C@@]1(C(=O)O)CCCN1; cTA = not defined here; AEEA = NCCOCCOCC(=O)O; Aib = CC(C)(N)C(=O)O
# Molecular target: T1, human gastric inhibitory peptide receptor (hGIPR) (Homo sapiens, UniProt P48546)
# T1 construct: expressed in transfected cells; host or cells: HEK293
# T1 sequence (P48546 22-466): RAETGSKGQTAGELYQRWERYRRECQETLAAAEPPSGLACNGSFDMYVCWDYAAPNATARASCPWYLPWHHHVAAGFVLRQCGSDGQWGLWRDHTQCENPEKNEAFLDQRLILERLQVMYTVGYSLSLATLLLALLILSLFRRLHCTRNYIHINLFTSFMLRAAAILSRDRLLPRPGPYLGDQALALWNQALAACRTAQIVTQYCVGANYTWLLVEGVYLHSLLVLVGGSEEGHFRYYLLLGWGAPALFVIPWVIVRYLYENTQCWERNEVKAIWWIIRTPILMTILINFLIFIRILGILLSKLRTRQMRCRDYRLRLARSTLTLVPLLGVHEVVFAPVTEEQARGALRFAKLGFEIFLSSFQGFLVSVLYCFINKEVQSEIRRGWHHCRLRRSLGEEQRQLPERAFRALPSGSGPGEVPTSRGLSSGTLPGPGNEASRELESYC
# Assay: cAMP pharmacological functional assay in presence of 0.1% casein, hGIPR
# Format: cell-based
# Details: ratio of hGIPR to hGLP1R cAMP EC50 ratios
row,Substance,[hGIPR/hGLP1R] EC50 Ratio
1,Y-Aib-EGTFTSDYSILLDSK((2-[2-(2-Amino-ethoxy)-ethoxy]-acetyl)2-(γGlu)-CO—(CH2)18—CO2H)AQ-Aib-AFIEYLIEGGPSSGAPPPS-NH2 (Y[Aib]EGTFTSDYSILLDSK([AEEA-AEEA-γGlu-C20 diacid])AQ[Aib]AFIEYLIEGGPSSGAPPPS-NH2; N-terminus assumed; SMILES CC[C@H](C)[C@H](NC(=O)[C@H](CC(C)C)NC(=O)[C@H](Cc1ccc(O)cc1)NC(=O)[C@H](CCC(=O)O)NC(=O)[C@@H](NC(=O)[C@H](Cc1ccccc1)NC(=O)[C@H](C)NC(=O)C(C)(C)NC(=O)[C@H](CCC(N)=O)NC(=O)[C@H](C)NC(=O)[C@H](CCCCNC(=O)COCCOCCNC(=O)COCCOCCNC(=O)CC[C@H](NC(=O)CCCCCCCCCCCCCCCCCCC(=O)O)C(=O)O)NC(=O)[C@H](CO)NC(=O)[C@H](CC(=O)O)NC(=O)[C@H](CC(C)C)NC(=O)[C@H](CC(C)C)NC(=O)[C@@H](NC(=O)[C@H](CO)NC(=O)[C@H](Cc1ccc(O)cc1)NC(=O)[C@H](CC(=O)O)NC(=O)[C@H](CO)NC(=O)[C@@H](NC(=O)[C@H](Cc1ccccc1)NC(=O)[C@@H](NC(=O)CNC(=O)[C@H](CCC(=O)O)NC(=O)C(C)(C)NC(=O)[C@@H](N)Cc1ccc(O)cc1)[C@@H](C)O)[C@@H](C)O)[C@@H](C)CC)[C@@H](C)CC)C(=O)N[C@@H](CCC(=O)O)C(=O)NCC(=O)NCC(=O)N1CCC[C@H]1C(=O)N[C@@H](CO)C(=O)N[C@@H](CO)C(=O)NCC(=O)N[C@@H](C)C(=O)N1CCC[C@H]1C(=O)N1CCC[C@H]1C(=O)N1CCC[C@H]1C(=O)N[C@@H](CO)C(N)=O) [Peptide 9],2.45
2,Y-Aib-EGTFTSDYSK((2-[2-(2-Amino-ethoxy)-ethoxy]-acetyl)2-(γGlu)-CO—(CH2)18—CO2H)LLDKIAQ-Aib-AFIEYLIEGGPSSGAPPPS-NH2 (Y[Aib]EGTFTSDYSK([AEEA-AEEA-γGlu-C20 diacid])LLDKIAQ[Aib]AFIEYLIEGGPSSGAPPPS-NH2; N-terminus assumed; SMILES CC[C@H](C)[C@H](NC(=O)[C@H](CCCCN)NC(=O)[C@H](CC(=O)O)NC(=O)[C@H](CC(C)C)NC(=O)[C@H](CC(C)C)NC(=O)[C@H](CCCCNC(=O)COCCOCCNC(=O)COCCOCCNC(=O)CC[C@H](NC(=O)CCCCCCCCCCCCCCCCCCC(=O)O)C(=O)O)NC(=O)[C@H](CO)NC(=O)[C@H](Cc1ccc(O)cc1)NC(=O)[C@H](CC(=O)O)NC(=O)[C@H](CO)NC(=O)[C@@H](NC(=O)[C@H](Cc1ccccc1)NC(=O)[C@@H](NC(=O)CNC(=O)[C@H](CCC(=O)O)NC(=O)C(C)(C)NC(=O)[C@@H](N)Cc1ccc(O)cc1)[C@@H](C)O)[C@@H](C)O)C(=O)N[C@@H](C)C(=O)N[C@@H](CCC(N)=O)C(=O)NC(C)(C)C(=O)N[C@@H](C)C(=O)N[C@@H](Cc1ccccc1)C(=O)N[C@H](C(=O)N[C@@H](CCC(=O)O)C(=O)N[C@@H](Cc1ccc(O)cc1)C(=O)N[C@@H](CC(C)C)C(=O)N[C@H](C(=O)N[C@@H](CCC(=O)O)C(=O)NCC(=O)NCC(=O)N1CCC[C@H]1C(=O)N[C@@H](CO)C(=O)N[C@@H](CO)C(=O)NCC(=O)N[C@@H](C)C(=O)N1CCC[C@H]1C(=O)N1CCC[C@H]1C(=O)N1CCC[C@H]1C(=O)N[C@@H](CO)C(N)=O)[C@@H](C)CC)[C@@H](C)CC) [Peptide 25],3.23
3,Y-Aib-cTA-GT-αMeF-TSDYSI-αMeL-LDEK((2-[2-(2-Amino-ethoxy)-ethoxy]-acetyl)2-(γGlu)-CO—(CH2)18—CO2H)AQ-Aib-AFIEYLIEGGPSSGAPPPS-NH2 (Y[Aib][cTA]GT[αMeF]TSDYSI[αMeL]LDEK([AEEA-AEEA-γGlu-C20 diacid])AQ[Aib]AFIEYLIEGGPSSGAPPPS-NH2; reading uncertain; also: printed as Y-Aib-cTA-GT-αMeF-TSDYSI-αMeL-LDEK((2-[2-(2-Amino-ethoxy)-ethoxy]-acetyl)2-(γGlu)-CO—(CH2)18—CO2H)AQ-Aib-AFIEYLIEGGPSSGAPPPS-NH2) [Peptide 120],5.24
4,Y-Pro-EGTFTSDYSILLDKK((2-[2-(2-Amino-ethoxy)-ethoxy]-acetyl)2-(γGlu)-CO—(CH2)18—CO2H)AQ-Aib-AFIEYLIEGGPSSGAPPPS-NH2 (YPEGTFTSDYSILLDKK([AEEA-AEEA-γGlu-C20 diacid])AQ[Aib]AFIEYLIEGGPSSGAPPPS-NH2; N-terminus assumed; SMILES CC[C@H](C)[C@H](NC(=O)[C@H](CC(C)C)NC(=O)[C@H](Cc1ccc(O)cc1)NC(=O)[C@H](CCC(=O)O)NC(=O)[C@@H](NC(=O)[C@H](Cc1ccccc1)NC(=O)[C@H](C)NC(=O)C(C)(C)NC(=O)[C@H](CCC(N)=O)NC(=O)[C@H](C)NC(=O)[C@H](CCCCNC(=O)COCCOCCNC(=O)COCCOCCNC(=O)CC[C@H](NC(=O)CCCCCCCCCCCCCCCCCCC(=O)O)C(=O)O)NC(=O)[C@H](CCCCN)NC(=O)[C@H](CC(=O)O)NC(=O)[C@H](CC(C)C)NC(=O)[C@H](CC(C)C)NC(=O)[C@@H](NC(=O)[C@H](CO)NC(=O)[C@H](Cc1ccc(O)cc1)NC(=O)[C@H](CC(=O)O)NC(=O)[C@H](CO)NC(=O)[C@@H](NC(=O)[C@H](Cc1ccccc1)NC(=O)[C@@H](NC(=O)CNC(=O)[C@H](CCC(=O)O)NC(=O)[C@@H]1CCCN1C(=O)[C@@H](N)Cc1ccc(O)cc1)[C@@H](C)O)[C@@H](C)O)[C@@H](C)CC)[C@@H](C)CC)C(=O)N[C@@H](CCC(=O)O)C(=O)NCC(=O)NCC(=O)N1CCC[C@H]1C(=O)N[C@@H](CO)C(=O)N[C@@H](CO)C(=O)NCC(=O)N[C@@H](C)C(=O)N1CCC[C@H]1C(=O)N1CCC[C@H]1C(=O)N1CCC[C@H]1C(=O)N[C@@H](CO)C(N)=O) [Peptide 88],4.27
5,Y-αMePro-EGTFTSDYSILLDEK((2-[2-(2-Amino-ethoxy)-ethoxy]-acetyl)2-(γGlu)-CO—(CH2)16—CO2H)AQQAFIEYLIEGGPSSG-NH2 (Y[αMeP]EGTFTSDYSILLDEK([AEEA-AEEA-γGlu-C18 diacid])AQQAFIEYLIEGGPSSG-NH2; N-terminus assumed; SMILES CC[C@H](C)[C@H](NC(=O)[C@H](CC(C)C)NC(=O)[C@H](Cc1ccc(O)cc1)NC(=O)[C@H](CCC(=O)O)NC(=O)[C@@H](NC(=O)[C@H](Cc1ccccc1)NC(=O)[C@H](C)NC(=O)[C@H](CCC(N)=O)NC(=O)[C@H](CCC(N)=O)NC(=O)[C@H](C)NC(=O)[C@H](CCCCNC(=O)COCCOCCNC(=O)COCCOCCNC(=O)CC[C@H](NC(=O)CCCCCCCCCCCCCCCCC(=O)O)C(=O)O)NC(=O)[C@H](CCC(=O)O)NC(=O)[C@H](CC(=O)O)NC(=O)[C@H](CC(C)C)NC(=O)[C@H](CC(C)C)NC(=O)[C@@H](NC(=O)[C@H](CO)NC(=O)[C@H](Cc1ccc(O)cc1)NC(=O)[C@H](CC(=O)O)NC(=O)[C@H](CO)NC(=O)[C@@H](NC(=O)[C@H](Cc1ccccc1)NC(=O)[C@@H](NC(=O)CNC(=O)[C@H](CCC(=O)O)NC(=O)[C@]1(C)CCCN1C(=O)[C@@H](N)Cc1ccc(O)cc1)[C@@H](C)O)[C@@H](C)O)[C@@H](C)CC)[C@@H](C)CC)C(=O)N[C@@H](CCC(=O)O)C(=O)NCC(=O)NCC(=O)N1CCC[C@H]1C(=O)N[C@@H](CO)C(=O)N[C@@H](CO)C(=O)NCC(N)=O) [Peptide 197],4.52

# From US12295987B2, “Method of using a GIP/GLP1 co-agonist for diabetes” (Eli Lilly and Company, priority 2018, dated 2025)
